Assays:
[1] = biological target: C-phycocyanin (Synechocystis sp. strain PCC6803) (UniProt Q54715); test: SPR; BIACORE 3000, 25°C; CPC amine-coupled on a CM5 chip; PPC domains 0.25-8 µM at 30 µl/min; regeneration with 20 mM NaOH; global fits, BIAevaluation 4.1
[2] = biological target: GST-fused PPC2 domain of metalloprotease E495 (Pseudoalteromonas sp. SM495); test: pull-down; GST-fused PPC domain (or mutant) attached to glutathione-agarose resin; 0.1 mg/ml CPC or casein added, 4°C, 12 h with shaking; substrate remaining in the supernatant analysed by 12.5% SDS-PAGE and ImageJ
[3] = biological target: GST-fused PPC12 (PPC1 and PPC2 domains) of metalloprotease E495 (Pseudoalteromonas sp. SM495); test: as above
[4] = biological target: GST-fused PPC1 domain of metalloprotease E495 (Pseudoalteromonas sp. SM495); test: as above

Chain of C-phycocyanin (Synechocystis sp. strain PCC6803) (Q54715 whole entry, chain 1 of 2, other chains not shown, the tested form may be a part): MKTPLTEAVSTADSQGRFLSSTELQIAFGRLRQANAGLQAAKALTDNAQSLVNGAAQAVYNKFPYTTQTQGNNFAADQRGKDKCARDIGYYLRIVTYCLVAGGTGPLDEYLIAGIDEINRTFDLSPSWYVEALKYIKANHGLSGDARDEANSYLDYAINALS

| Kd [1] | koff [1] | kon [1] | K m of α-casein hydrolysis at 50°C (non-linear fit, Michaelis-Menten) (alpha casein) | percent bound [2] | percent bound [3] | percent bound [4] | Substance |
| --- | --- | --- | --- | --- | --- | --- | --- |
| 2470 nM | 0.0162 s⁻¹ | 6560 M⁻¹ s⁻¹ |  |  |  |  | GST-fused PPC2 domain of metalloprotease E495 (domain or fragment) |
| 770 nM | 0.0158 s⁻¹ | 20400 M⁻¹ s⁻¹ |  |  |  |  | GST-fused PPC1 domain of metalloprotease E495 (domain or fragment) |
|  |  |  | 18 µM |  |  |  | E495-M-C1 (mature form of metalloprotease E495 containing the catalytic domain and the PPC1 domain) (enzyme) |
|  |  |  |  | 30% | 30% | 30% | C-phycocyanin (from UniProt Q54715 1-162; Q54714 1-172) (complex) |
|  |  |  |  | 30% | 30% | 30% | alpha casein (natural protein) |
|  |  |  | 67 µM |  |  |  | E495-M (mature form of metalloprotease E495 containing only the catalytic domain) (enzyme) |

— publication PMC3327674, “Structural and Functional Characterization of Mature Forms of Metalloprotease E495 from Arctic Sea-Ice Bacterium Pseudoalteromonas sp. SM495” (PLoS ONE, 2012)
